Laboratory results taken from patent publication US20240262879A1 (Boehringer Ingelheim, published 2024).
Numbering of substitutions follows the chain as printed. Values belong to the binder of their own block, whether it stands above or below them.

Key:
[1] = molecular target: T1, Interleukin-12 (IL-12) (human, UniProt P29459 23-219; P29460 23-328); assay: affinity for IL-12; method not stated
T1 sequence 1: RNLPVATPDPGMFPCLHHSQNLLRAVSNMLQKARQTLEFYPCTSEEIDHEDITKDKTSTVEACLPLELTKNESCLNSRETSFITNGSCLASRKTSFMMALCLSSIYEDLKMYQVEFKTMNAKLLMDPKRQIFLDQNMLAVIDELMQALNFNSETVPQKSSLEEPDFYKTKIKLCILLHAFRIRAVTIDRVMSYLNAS
T1 sequence 2: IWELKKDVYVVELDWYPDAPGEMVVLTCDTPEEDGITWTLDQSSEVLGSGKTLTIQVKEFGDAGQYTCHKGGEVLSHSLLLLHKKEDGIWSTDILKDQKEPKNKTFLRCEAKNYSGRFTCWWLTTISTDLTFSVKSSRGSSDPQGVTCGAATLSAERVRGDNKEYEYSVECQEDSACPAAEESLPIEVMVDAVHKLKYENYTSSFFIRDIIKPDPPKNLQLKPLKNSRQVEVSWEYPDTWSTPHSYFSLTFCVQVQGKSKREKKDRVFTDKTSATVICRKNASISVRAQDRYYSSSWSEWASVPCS

[2] = molecular target: T1, Interleukin-12 (IL-12); assay: cell-based or functional assay
[3] = molecular target: collagen present in fibrotic rat livers (rat); assay: 24 h incubation with fibrotic rat liver slices, recovered protein by MSD U-PLEX
Procedure: (§1) FIGS. 26A-26B: Precision cut liver slices were prepared from fibrotic rat livers. IL-12 Fc fusion proteins (BI-057 or BI-065; in amounts indicated in figure legends) were added to the slices and incubated for 24 hours (FIG. 26A) or 2 hours followed by 22 h recovery period (FIG. 26B). After 2 h incubation, fusion proteins were thoroughly washed and incubated for another 22 h in medium before harvest. After 24 h, slices were collected, lysed and homogenized. The amount of IL-12 Fc fusion proteins recovered from the slices was determined with the MSD U-PLEX Biomarker Assay using IL-12 Fc fusion proteins as standards.
(§2) Briefly, tissue cores are cut from the fibrotic rat liver using a 5 mm cylindrical motorized tissue coring press (Alabama R&D, MD5000), and 300 μm thick tissue slices are cut using a tissue slicer (Alabama R&D, MD6000). All tissue slices are cultured with a floating culture system (60 rpm) in 12 well plates (Nunc) in a humidified incubator, 95% O₂/5% CO₂, 37° C. in 1.3 mL supplemented William's Medium E (Life Technologies).

[4] = molecular target: T2, human collagen type 1 (human, UniProt P02452 162-1218; P08123 80-1119, limits assumed); assay: ELISA on plates coated with human collagen I (Millipore/R&D), detection with anti-human Fc
T2 construct: Bought or cell-made collagen; also called human collagen I; human collagen (Millipore/R&D)
T2 sequence (P02452 162-1218 limits assumed, chain 1 of 2): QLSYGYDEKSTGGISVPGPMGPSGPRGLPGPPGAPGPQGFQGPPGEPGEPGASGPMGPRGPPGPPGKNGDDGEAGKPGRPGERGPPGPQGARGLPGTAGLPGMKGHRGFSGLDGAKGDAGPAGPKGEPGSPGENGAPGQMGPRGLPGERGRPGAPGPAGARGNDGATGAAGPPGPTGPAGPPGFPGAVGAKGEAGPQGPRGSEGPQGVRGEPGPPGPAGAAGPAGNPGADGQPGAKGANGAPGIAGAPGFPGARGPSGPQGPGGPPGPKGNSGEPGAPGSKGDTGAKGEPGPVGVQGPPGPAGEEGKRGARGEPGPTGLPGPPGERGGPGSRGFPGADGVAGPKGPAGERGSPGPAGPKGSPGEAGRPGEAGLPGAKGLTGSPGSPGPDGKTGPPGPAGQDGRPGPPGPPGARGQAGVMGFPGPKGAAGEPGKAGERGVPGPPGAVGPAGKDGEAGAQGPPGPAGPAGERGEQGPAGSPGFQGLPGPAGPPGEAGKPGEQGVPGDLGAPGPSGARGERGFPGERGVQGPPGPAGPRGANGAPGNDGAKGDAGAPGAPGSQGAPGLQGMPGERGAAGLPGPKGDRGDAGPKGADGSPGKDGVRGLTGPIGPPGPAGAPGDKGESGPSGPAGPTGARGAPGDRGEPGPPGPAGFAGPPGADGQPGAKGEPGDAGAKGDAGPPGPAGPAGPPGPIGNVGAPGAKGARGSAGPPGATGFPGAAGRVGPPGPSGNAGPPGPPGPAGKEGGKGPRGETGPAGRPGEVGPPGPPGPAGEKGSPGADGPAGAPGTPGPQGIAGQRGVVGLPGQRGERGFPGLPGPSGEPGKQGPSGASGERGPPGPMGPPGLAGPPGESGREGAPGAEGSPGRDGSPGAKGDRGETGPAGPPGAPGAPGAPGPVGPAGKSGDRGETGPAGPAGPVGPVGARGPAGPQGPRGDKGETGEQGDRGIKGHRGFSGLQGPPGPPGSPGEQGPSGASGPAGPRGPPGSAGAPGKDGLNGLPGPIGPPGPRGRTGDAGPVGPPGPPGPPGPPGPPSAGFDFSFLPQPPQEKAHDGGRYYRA
T2 sequence (P08123 80-1119 limits assumed, chain 2 of 2): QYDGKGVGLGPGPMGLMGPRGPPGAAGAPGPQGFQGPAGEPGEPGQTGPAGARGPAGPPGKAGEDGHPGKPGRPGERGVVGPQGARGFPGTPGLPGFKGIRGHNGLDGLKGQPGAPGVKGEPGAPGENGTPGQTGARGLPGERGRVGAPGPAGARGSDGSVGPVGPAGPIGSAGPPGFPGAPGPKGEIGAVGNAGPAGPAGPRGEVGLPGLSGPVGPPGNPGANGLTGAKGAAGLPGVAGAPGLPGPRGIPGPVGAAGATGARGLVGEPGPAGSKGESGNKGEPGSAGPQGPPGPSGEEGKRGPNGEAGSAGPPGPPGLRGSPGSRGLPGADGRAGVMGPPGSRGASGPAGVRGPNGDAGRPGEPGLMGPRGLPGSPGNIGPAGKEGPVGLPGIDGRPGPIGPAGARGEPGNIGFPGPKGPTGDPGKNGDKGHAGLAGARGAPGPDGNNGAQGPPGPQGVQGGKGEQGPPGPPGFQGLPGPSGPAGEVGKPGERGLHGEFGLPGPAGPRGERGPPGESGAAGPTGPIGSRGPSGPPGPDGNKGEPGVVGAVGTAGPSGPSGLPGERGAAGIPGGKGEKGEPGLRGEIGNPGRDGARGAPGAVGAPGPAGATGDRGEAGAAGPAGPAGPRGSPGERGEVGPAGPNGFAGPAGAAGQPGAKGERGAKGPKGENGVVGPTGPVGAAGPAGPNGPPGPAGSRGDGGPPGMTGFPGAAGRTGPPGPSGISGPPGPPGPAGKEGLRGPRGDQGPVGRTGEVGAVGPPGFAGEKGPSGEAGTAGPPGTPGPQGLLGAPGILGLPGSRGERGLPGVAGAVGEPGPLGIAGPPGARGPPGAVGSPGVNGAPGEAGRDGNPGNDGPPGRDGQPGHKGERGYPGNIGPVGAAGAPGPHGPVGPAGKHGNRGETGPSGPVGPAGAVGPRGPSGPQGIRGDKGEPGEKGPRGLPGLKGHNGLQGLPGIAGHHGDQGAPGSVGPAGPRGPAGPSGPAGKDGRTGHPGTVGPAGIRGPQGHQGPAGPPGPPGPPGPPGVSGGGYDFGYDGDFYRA
Procedure: (§3) Collagen binding properties were further evaluated in ELISA assay. Chimeric IL-12 Fc fusion protein BI-065 or chimeric IL-12 Fc fusion protein containing collagen I TME linker BI-057 were added to collagen I-coated plates. To this end, plates were coated either with rat collagen I (FIG. 25A) or with human skin collagen I (FIG. 25B).
(§4) Briefly, high binding microplates (greiner) are coated over night at 4° C. with rat collagen (Corning) or human collagen (Millipore/R&D) diluted in coating buffer (Invitrogen) with a concentration of 0.005 mg/mL. IL-12 Fc fusion proteins are diluted in PBS+1% BSA and added to collagen precoated plates for 2 hours. The plates are blocked with 1% BSA before addition of proteins to minimize unspecific binding. Next, plates are washed 3× followed by incubation with biotinylated anti-human Fc antibody (Invitrogen). After additional washing step, Streptavidin-HRP are added to the plates. Substrate are added to plates after a washing step and plates are read in ELISA reader (Tecan).

[5] = molecular target: collagen present in fibrotic rat livers (rat); assay: 2 h incubation, wash and 22 h culture of fibrotic rat liver slices, recovered protein by MSD U-PLEX
Procedure: as §1, §2

[6] = molecular target: T3, rat collagen I (rat, UniProt P02454 152-1207; P02466 86-1125); assay: ELISA on plates coated with rat collagen I (Corning), detection with anti-human Fc
T3 construct: Bought; also called Rat collagen (Corning)
T3 sequence (P02454 152-1207, chain 1 of 2): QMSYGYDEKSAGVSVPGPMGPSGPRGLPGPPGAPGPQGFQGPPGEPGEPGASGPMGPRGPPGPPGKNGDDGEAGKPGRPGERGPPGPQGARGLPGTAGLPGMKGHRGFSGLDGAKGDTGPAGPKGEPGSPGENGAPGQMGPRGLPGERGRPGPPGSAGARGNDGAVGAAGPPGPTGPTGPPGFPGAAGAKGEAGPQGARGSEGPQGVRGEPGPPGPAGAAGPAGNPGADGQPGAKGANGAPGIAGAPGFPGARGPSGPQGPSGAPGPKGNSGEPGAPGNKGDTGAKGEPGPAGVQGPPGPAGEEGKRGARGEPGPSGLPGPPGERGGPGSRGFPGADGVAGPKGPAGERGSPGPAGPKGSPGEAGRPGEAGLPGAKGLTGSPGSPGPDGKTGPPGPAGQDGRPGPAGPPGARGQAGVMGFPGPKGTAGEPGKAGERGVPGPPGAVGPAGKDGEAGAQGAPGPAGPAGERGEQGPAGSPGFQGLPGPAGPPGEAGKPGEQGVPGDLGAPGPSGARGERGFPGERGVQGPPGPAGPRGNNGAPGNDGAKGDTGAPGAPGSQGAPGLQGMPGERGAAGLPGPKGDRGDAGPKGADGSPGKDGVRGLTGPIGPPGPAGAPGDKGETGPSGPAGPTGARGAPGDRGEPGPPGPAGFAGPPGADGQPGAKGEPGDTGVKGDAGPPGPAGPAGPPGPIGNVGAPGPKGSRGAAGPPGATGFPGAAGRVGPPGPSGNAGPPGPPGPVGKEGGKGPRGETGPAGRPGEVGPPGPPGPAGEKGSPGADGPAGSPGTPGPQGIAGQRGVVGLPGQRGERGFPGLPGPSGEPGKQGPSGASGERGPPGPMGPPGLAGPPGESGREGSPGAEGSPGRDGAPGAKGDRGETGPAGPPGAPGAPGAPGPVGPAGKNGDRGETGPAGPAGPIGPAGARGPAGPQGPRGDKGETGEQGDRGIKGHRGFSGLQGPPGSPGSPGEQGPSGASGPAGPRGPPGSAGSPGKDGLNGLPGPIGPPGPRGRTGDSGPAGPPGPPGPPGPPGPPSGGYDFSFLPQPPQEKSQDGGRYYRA
T3 sequence (P02466 86-1125, chain 2 of 2): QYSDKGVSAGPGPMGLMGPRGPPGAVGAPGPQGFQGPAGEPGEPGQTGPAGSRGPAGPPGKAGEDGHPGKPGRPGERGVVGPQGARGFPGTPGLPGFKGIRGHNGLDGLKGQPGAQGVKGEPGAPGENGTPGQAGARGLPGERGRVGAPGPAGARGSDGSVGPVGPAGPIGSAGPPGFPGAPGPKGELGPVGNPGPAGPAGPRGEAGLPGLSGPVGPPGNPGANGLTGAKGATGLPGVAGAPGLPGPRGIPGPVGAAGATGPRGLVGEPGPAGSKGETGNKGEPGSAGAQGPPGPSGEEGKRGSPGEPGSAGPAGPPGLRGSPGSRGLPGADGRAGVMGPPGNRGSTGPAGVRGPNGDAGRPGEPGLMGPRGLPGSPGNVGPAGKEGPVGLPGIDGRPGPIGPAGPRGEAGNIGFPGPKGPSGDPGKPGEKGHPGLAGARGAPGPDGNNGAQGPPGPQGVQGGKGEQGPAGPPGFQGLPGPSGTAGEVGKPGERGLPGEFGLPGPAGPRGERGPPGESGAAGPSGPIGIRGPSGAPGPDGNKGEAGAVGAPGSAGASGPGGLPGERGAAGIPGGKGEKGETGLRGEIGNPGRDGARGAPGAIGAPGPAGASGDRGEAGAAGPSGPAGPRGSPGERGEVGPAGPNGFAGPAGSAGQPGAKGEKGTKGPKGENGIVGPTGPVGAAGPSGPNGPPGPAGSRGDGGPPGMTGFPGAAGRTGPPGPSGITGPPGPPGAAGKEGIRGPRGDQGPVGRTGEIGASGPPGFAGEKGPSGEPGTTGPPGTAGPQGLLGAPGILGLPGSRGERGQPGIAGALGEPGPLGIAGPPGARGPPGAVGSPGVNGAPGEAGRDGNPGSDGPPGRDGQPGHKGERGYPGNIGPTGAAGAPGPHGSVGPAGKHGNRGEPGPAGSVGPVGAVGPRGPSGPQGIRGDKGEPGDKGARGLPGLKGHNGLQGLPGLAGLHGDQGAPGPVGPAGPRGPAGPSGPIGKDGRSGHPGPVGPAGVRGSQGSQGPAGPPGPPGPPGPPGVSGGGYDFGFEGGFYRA
Procedure: as §3, §4

Kd [1]: 4.1 nM | IC50 [2]: 2.5 nM
B3: BI-120 (VHH)
VHH: EVQLVESGGGLVQPGGSLRLSCAASGRTFETIAMGWFRQAPGKEREFVAVIRGSGVATYYPESVKGRFTISKDSSKNTVYLQMNSLRAEDTAVYYCAATTNRFKNTEYTTYDYWGQGTQVTVSS

Kd [1]: 3 nM | IC50 [2]: 0.36 nM
B4: BI-117 (VHH)
VHH: B3 VHH with E107D
notes: also called 61-Gft-106_D62E

Kd [1]: 30 nM | IC50 [2]: 10 nM
B5: BI-123 (VHH)
VHH: B3 VHH with Y59S, E107D

Kd [1]: 8.5 nM | IC50 [2]: 2.4 nM
B7: BI-119 (VHH)
VHH: B3 VHH with T106R, E107D

The remaining lines, values behind:

B1: BI-039 (VHH)
VHH: B3 VHH with E1Q, P14A, A40V, E62D, S75A, S85N, R87K, A88P, E107D
Kd [1]: 3.5 nM | IC50 [2]: 0.61 nM

B2: BI-048 (VHH)
VHH: B3 VHH with E44G, R45L, P61A, E107D
notes: Humanised variant of BI-039, the selected masking domain; also called Mix 13
Kd [1]: 3.7 nM | IC50 [2]: 0.44 nM

B6: BI-063 (VHH)
VHH: B3 VHH with E62D, E107D
notes: Variant of BI-039; also called 61-Gft-106; BI-063 VHH
Kd [1]: 3.4 nM | IC50 [2]: 0.89 nM

B8: BI-049 (VHH)
VHH: B3 VHH with E44G, R45L, P61A, T106R
notes: Variant of BI-039, mask of BI-054; also called Mix 15
Kd [1]: 12 nM | IC50 [2]: 5.7 nM

B9: BI-057 (Fc fusion)
chain 1: EPKSSDKTHTCPPCPAPEAAGGPSVFLFPPKPKDTLMISRTPEVTCVVVDVSHEDPEVKFNWYVDGVEVHNAKTKPREEQYNSTYRVVSVLTVLHQDWLNGKEYKCKVSNKALPAPIEKTISKAKGQPREPQVYTLPPSREEMTKNQVSLWCLVKGFYPSDIAVEWESNGQPENNYKTTPPVLDSDGSFFLYSKLTVDKSRWQQGNVFSCSVMHEALHNHYTQKSLSLSPGGGGGSGGGGGPLGVRGGGGGSIWELKKDVYVVELDWYPDAPGEMVVLTCDTPEEDGITWTLDQSSEVLGSGKTLTIQVKEFGDAGQYTCHKGGEVLSHSLLLLHKKEDGIWSTDILKDQKEPKNKTFLRCEAKNYSGRFTCWWLTTISTDLTFSVKSSRGSSDPQGVTCGAATLSAERVRGDNKEYEYSVECQEDSACPAAEESLPIEVMVDAVHKLKYENYTSSFFIRDIIKPDPPKNLQLKPLKNSRQVEVSWEYPDTWSTPHSYFSLTFCVQVQGKSKREKKDRVFTDKTSATVICRKNASISVRAQDRYYSSSWSEWASVPCSGGGGSGGGGSGGGGSRVIPVSGPARCLSQSRNLLKTTDDMVKTAREKLKHYSCTAEDIDHEDITRDQTSTLKTCLPLELHKNESCLATRETSSTTRGSCLPPQKTSLMMTLCLGSIYEDLKMYQTEFQAINAALQNHNHQQIILDKGMLVAIDELMQSLNHNGETLRQKPPVGEADPYRVKMKLCILLHAFSTRVVTINRVMGYLSSAGSGGLRELHLDNN
chain 2: EPKSSDKTHTCPPCPAPEAAGGPSVFLFPPKPKDTLMISRTPEVTCVVVDVSHEDPEVKFNWYVDGVEVHNAKTKPREEQYNSTYRVVSVLTVLHQDWLNGKEYKCKVSNKALPAPIEKTISKAKGQPREPQVYTLPPSREEMTKNQVSLSCAVKGFYPSDIAVEWESNGQPENNYKTTPPVLDSDGSFFLVSKLTVDKSRWQQGNVFSCSVMHEALHNRFTQKSLSLSPGGGGGSGGGGSGGGGSGGGGSGGGGSEVQLVESGGGLVQPGGSLRLSCAASGRTFETIAMGWFRQAPGKGLEFVAVIRGSGVATYYAESVKGRFTISKDSSKNTVYLQMNSLRAEDTAVYYCAATTNRFKNTDYTTYDYWGQGTQVTVSSA
notes: Knob-into-hole heterodimer; human p40, mouse p35; also called chimeric IL-12 Fc fusion protein containing collagen I TME linker
fold decrease in fold recovery from liver slices against BI-065 [3]: > 10 fold | EC50 [4]: 75 nM | fold recovery from liver slices against BI-065 [5]: 10 fold | EC50 [6]: 26 nM
